From publication PMC6168351 (Molecular cancer therapeutics, 2018) come the findings set out here.

The assay addresses Human GPA33 (Novoprotein), recombinant (Homo sapiens (Human)., UniProt Q99795). The experiment in a line: SPR. In general terms: In SPR one partner is held on a chip, and binding of the other changes the refractive index at the surface.

Chain of Human GPA33 (Novoprotein), recombinant (Q99795 22-235): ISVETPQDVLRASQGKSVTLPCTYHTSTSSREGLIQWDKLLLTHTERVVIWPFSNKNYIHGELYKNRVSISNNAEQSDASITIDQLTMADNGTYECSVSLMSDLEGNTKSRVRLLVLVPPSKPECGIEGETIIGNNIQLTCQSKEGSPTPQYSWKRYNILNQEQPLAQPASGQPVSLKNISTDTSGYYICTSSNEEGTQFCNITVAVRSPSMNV

B1: huA33 (humanized A33 antibody, selected clone), IgG1 (antibody, V domains shown)
VH: EVQLVESGGGLVKPGGSLRLSCAASGFAFSTYDMSWVRQAPGKRLEWVATISSGGSYTYYLDSVKGRFTISRDNAKNSLYLQMNSLRAEDTAVYYCAPTTVVPFAYWGQGTLVTVSS
VL: DIQMTQSQSSLSTSVGDRVTITCKASQNVRTVVAWYQQKPGKSPKTLIYLASNRHTGVPSRFSGSGSGTEFTLTISNVQPEDFADYFCLQHWSYPLTFGSGTKLEIK
As usually defined, the Kd is the free concentration of one partner at which half of the binding sites on the other are occupied at equilibrium, for simple one-to-one binding. On to B1, for which the Kd turned out to be 0.13 nM.
